Like-named read-outs stand apart in the source and are kept apart here.
B1: ZKA35 (antibody, V domains shown)
VH: QVQLQESGPGLVKPSQTLSLTCTVSGGSISTGGYYWSWIRQHPGKGLEWIGYIYYSGNTYYNPSLKSRVTISVDTSKKQFSLKLSSVTAADTAVYYCAKGGGRERPFDYWGQGTLVTVSS
VL: QSVLTQPPSASGTPGQRVTISCSGSSSNIGRNYVDWYQQLPGTAPKLLIYRNNQRPSGVPERFSGSKSGTSASLAISGLRSEDEADYYCVAWDDSRSGFVVFGGGTKVTVL
B2: ZKA15 (antibody, V domains shown)
VH: QVQLQESGPGLVKPSETLSLTCTVSGGFINSYYWSWIRQPAGKGLEWIGRIYKSGSTNYNPSLKSRVTMSLDTSKYQFSLKLRSVTAADTAVYYCARDPYGDYVKAFDIWGQGTMVTVSS
VL: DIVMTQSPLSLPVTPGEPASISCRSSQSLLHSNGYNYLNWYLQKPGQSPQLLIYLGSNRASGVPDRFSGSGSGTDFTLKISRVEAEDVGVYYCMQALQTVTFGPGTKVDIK
B3: ZKA25 (antibody, V domains shown)
VH: EVQLVESGGGLVRPGGSLRLSCAASGFTFRSHWMSWVRQAPGKGLEWVANIKEDGYEKYYVDSVKGRFTISRDNAKNSLYLQMKSLRAEDTAVYYCARDLRVYSGRGFDPWGQGTLVTVSS
VL: not shown

Legend:
Assay in all cases: ELISA
ZIKV NS1 [1] = target: ZIKV NS1 (Zika virus (ZIKV))
ZIKV NS1 [2] = target: ZIKV NS1 (Zika virus (ZIKV)); remark: listed apart in the source
WNV NS1 = target: WNV NS1
JEV NS1 = target: JEV NS1
YFV NS1 = target: YFV NS1
TBEV NS1 = target: TBEV NS1

Row | Binder | EC50 (ZIKV NS1 [1]) | EC50 (ZIKV NS1 [2]) | EC50 (WNV NS1) | EC50 (JEV NS1) | EC50 (YFV NS1) | EC50 (TBEV NS1)
1 | B1 | 2 ng/mL | 1.74 ng/mL |  |  |  | 
2 | B2 | 3 ng/mL | 2.76 ng/mL | 3220 ng/mL | 5500 ng/mL | 2780 ng/mL | 4610 ng/mL
3 | B3 | 2 ng/mL | 2.44 ng/mL |  |  |  | 
